Columns and labels:
[1] = target: soluble human C3b (human) (UniProt P01024)
human C4b (human) [2] = target: T1, human C4b (human) (UniProt P0C0L4)
T1 sequence: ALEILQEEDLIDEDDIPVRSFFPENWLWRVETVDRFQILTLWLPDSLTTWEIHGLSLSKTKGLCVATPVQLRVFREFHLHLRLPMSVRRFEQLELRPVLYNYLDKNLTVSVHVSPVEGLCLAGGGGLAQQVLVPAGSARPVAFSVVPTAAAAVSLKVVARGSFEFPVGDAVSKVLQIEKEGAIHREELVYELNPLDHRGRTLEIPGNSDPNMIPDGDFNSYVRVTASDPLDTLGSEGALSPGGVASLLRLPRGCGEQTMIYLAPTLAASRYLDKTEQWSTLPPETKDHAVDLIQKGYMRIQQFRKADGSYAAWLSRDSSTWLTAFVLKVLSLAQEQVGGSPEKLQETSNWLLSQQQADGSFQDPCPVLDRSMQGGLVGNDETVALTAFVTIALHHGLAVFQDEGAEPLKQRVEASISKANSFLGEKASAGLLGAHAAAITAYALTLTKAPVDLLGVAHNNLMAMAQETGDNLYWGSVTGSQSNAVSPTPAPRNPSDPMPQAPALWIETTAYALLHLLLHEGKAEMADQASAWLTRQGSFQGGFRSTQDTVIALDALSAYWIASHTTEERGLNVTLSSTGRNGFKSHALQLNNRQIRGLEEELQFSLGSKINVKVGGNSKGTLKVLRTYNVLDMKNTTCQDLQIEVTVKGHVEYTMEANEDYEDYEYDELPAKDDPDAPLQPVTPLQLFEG

[3] = target: soluble human C3b (human) (UniProt P01024); remark: listed apart in the source
human C4b (human) [4] = target: T1, human C4b (human); remark: listed apart in the source

Row | Substance | iC3b Screen Ref Fold (fold of CFI-HSA wild type) [1] | C4b Screen Ref Fold (fold of CFI-HSA wild type) (human C4b (human) [2]) | iC3b EC50 [3] | C4c EC50 (nM) (human C4b (human) [4]) | iC3b Screen Ref Fold (fold of reference) [1] | C4b Screen Ref Fold (fold of reference) (human C4b (human) [2]) | C4c EC50 (human C4b (human) [4])
1 | CFI-HSA variant K504R; E530F; E457G; E461Q; N531G (enzyme) | 1.8 | 3.91 | 4.6 nM | 16.2 nM |  |  | 
2 | CFI-HSA variant T377G; E457G; E461Q; R462K; F464Y; N531G (enzyme) | 2.05 | 4.5 | 4.2 nM | 3.5 nM |  |  | 
3 | CFI-HSA variant E457R (enzyme) |  |  | 10.5 nM | 182 nM | 1.42 | 4.6 | 
4 | CFI-HSA variant K504R; E530F; D425K; P558S; E457G; E461Q; N531G (enzyme) | 1.98 | 3.92 | 2.4 nM | 6.9 nM |  |  | 
5 | CFI-HSA variant G406P (enzyme) |  |  | 35.9 nM |  | 0.47 | 0.49 | > 1000 nM
6 | CFI-HSA variant G406S (enzyme) |  |  | 32.6 nM |  | 0.4 | 1.83 | 315 nM
7 | CFI-HSA variant K504W (enzyme) |  |  | 48.7 nM | > 1000 nM | 0.12 | 0.27 | 
8 | CFI-HSA variant K418G; D425G (enzyme) |  |  | 28.5 nM |  | 0.19 | 0.84 | 865 nM
9 | CFI-HSA variant T377G; E457G; E461Q; F464Y; N531G (enzyme) | 2.12 | 4.08 | 3.4 nM | 23.3 nM |  |  | 
10 | CFI-HSA variant E416A; N422K; E457G; E461Q; Q467K; N531G (enzyme) | 3.05 | 3.84 | 1.7 nM | 4.4 nM |  |  | 
11 | CFI-HSA variant K504R; E530F; D425K; P558G (enzyme) | 3.07 | 0.08 | 5.2 nM | > 1000 nM |  |  | 
12 | CFI-HSA variant K504S (enzyme) |  |  | 43.7 nM | > 1000 nM | 0.25 | 0.45 | 
13 | CFI-HSA variant T377G (enzyme) |  |  | 16.4 nM | 147 nM | 1.01 | 6.1 | 
14 | CFI-HSA variant G406V (enzyme) |  |  | 43.1 nM |  | 0.44 | 1.09 | > 1000 nM
15 | CFI-HSA variant E457Q (enzyme) |  |  | 19.8 nM | 395 nM | 1 | 1.8 | 
16 | CFI-HSA variant E461M (enzyme) |  |  | 6.9 nM | 148 nM | 2.12 | 1.9 | 
17 | CFI-HSA variant G406T (enzyme) |  |  | 52.4 nM |  | 0.52 | 1.09 | > 1000 nM
18 | CFI-HSA variant E530F; E457G; E461Q; N531G (enzyme) | 2.48 | 4.17 | 2.9 nM | 9.1 nM |  |  | 
19 | CFI-HSA variant E416A; K504H (enzyme) | 0.59 | 0.63 | 20.8 nM | 168 nM |  |  | 
20 | CFI-HSA variant G406I (enzyme) |  |  | 54.4 nM |  | 0.4 | 0.97 | > 1000 nM
21 | CFI-HSA variant E457T (enzyme) |  |  | 10.4 nM | > 1000 nM | 1.5 | 1.34 | 
22 | CFI-HSA variant D341A (enzyme) |  |  | 57.2 nM | > 1000 nM | 0.26 | 0.19 | 
23 | CFI-HSA variant E461H (enzyme) |  |  | 11.7 nM | 134 nM | 1.3 | 3.16 | 
24 | CFI-HSA variant E461L (enzyme) |  |  | 7.3 nM | 87.5 nM | 1.71 | 4.22 | 
25 | CFI-HSA variant G406M (enzyme) |  |  | 40.5 nM |  | 0.6 | 1.17 | > 1000 nM
26 | CFI-HSA variant G406W (enzyme) |  |  | 65.5 nM |  | 0.38 | 1.57 | > 1000 nM
27 | CFI-HSA variant K504R; E530F; D425K; P558S (enzyme) | 2.91 | 0.05 | 5.7 nM | > 1000 nM |  |  | 

Other lines, results leading:

Row | iC3b Screen Ref Fold (fold of CFI-HSA wild type) [1] | C4b Screen Ref Fold (fold of CFI-HSA wild type) (human C4b (human) [2]) | iC3b EC50 [3] | C4c EC50 (nM) (human C4b (human) [4]) | iC3b Screen Ref Fold (fold of reference) [1] | C4b Screen Ref Fold (fold of reference) (human C4b (human) [2]) | C4c EC50 (human C4b (human) [4]) | Substance
28 |  |  | 8.9 nM | 64.4 nM | 2.03 | 4.79 |  | CFI-HSA variant E461V (enzyme)
29 |  |  | > 500 nM |  | 0 | 0.32 | > 1000 nM | CFI-HSA variant W381G (enzyme)
30 |  |  | 110 nM | > 1000 nM | 0.15 | 0.09 |  | CFI-HSA variant E457W (enzyme)
31 |  |  | 76.8 nM | > 1000 nM | 0.18 | 0.57 |  | CFI-HSA variant K504N (enzyme)
32 | 0.95 | 3.01 | 15.7 nM | 50.1 nM |  |  |  | CFI-HSA variant T377G; K504H (enzyme)
33 |  |  | 21.3 nM | 428 nM | 1.07 | 0.81 |  | CFI-HSA variant E457S (enzyme)
34 |  |  | 78.2 nM |  | -0.02 | 0.15 | > 1000 nM | CFI-HSA variant G406D; Y408L (enzyme)
35 | 1.9 | 4.25 | 2.2 nM | 4 nM |  |  |  | CFI-HSA variant D425R; E457G; E461Q; N531G (enzyme)
36 |  |  | 14.9 nM |  | 0.39 | 0.43 | > 1000 nM | CFI-HSA variant G406Y (enzyme)
37 |  |  | 35.2 nM |  | 0.59 | 0.94 | > 1000 nM | CFI-HSA variant G406N (enzyme)
38 | 2.21 | 4.41 | 5.1 nM | 20.4 nM |  |  |  | CFI-HSA variant Y408F; E457G; E461Q; R462K; E530Y; N531G; P558S (enzyme)
39 |  |  | 47.8 nM | 338 nM | 0.41 | 3.55 |  | CFI-HSA variant Y403F (enzyme)
40 |  |  | 16.3 nM | 215 nM | 0.9 | 4.31 |  | CFI-HSA variant E457N (enzyme)
41 | 1.34 | 0.88 | 25.5 nM | 238 nM |  |  |  | CFI-HSA variant N422G (enzyme)
42 | 1.66 | 1.3 | 9.6 nM | 143 nM |  |  |  | CFI-HSA variant E392G (enzyme)
43 |  |  | 116 nM | > 1000 nM | 0.13 | 0.88 |  | CFI-HSA variant G406E (enzyme)
44 |  |  | 21.2 nM | 99.8 nM | 0 | 2.48 |  | CFI-HSA variant N531M (enzyme)
45 | 2.01 | 4.21 | 4.2 nM | 18.1 nM |  |  |  | CFI-HSA variant E457G; E461Q; F464Y; E530F; N531G; P558S (enzyme)
46 | 0.49 | 1.78 | 22.7 nM | > 1000 nM |  |  |  | CFI-HSA variant E457G; E461Q; F464Y; K504H; N531G (enzyme)
47 |  |  | 40.6 nM | 567 nM | 0.8 | 0.99 |  | CFI-HSA variant E457V (enzyme)

From patent US20230038638A1, “COMPLEMENT FACTOR I-RELATED COMPOSITIONS AND METHODS” (published 2023)
